± gives the standard deviation of the averaged measurements.
Key:
Saccharomyces cerevisiae [1] = assay: protein stability index of tFT-peptide fusion in deletion strain of DAS1 (PSI (0-1 scale)); higher = more stable (slower turnover)
Experimental: (§1)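 MPS profiling in S. cerevisiae of two library types built from selected 12-aa C-degron peptides (IN1, IN2, LN1, LN3, VN2, R1-R5, W1-W3, Atg1 and Rpa12 C-termini): saturation mutagenesis libraries and C-terminal +1 capping libraries (13 aa). Each peptide is fused to the C-terminus of a sfGFP-mCherry timer, after a GGGS linker. Cells are FACS-sorted into 8 mCherry/sfGFP bins and sequenced. PSI runs from 0 (unstable) to 1 (stable), measured once in wild type and in the das1Δ or doa10Δ background.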

Saccharomyces cerevisiae [2] = assay: protein stability index of tFT-peptide fusion in wild type (PSI (0-1 scale)); higher = more stable (slower turnover); conditions: genetic background: wild type
Experimental: as §1

Saccharomyces cerevisiae [3] = assay: protein stability index of tFT-peptide fusion (C-terminal peptide) (PSI (0-1 scale)); higher = more stable (slower turnover); conditions: temperature: 30 C
Experimental: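 MPS profiling in S. cerevisiae of the yeast C-terminome library: the last 12 aa of each annotated ORF are fused to the C-terminus of a sfGFP-mCherry timer, after a GGGS linker. Cells are FACS-sorted into 8 mCherry/sfGFP bins and deep-sequenced. PSI runs from 0 (unstable) to 1 (stable); wild type and das1Δ backgrounds, two technical replicates each.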

[4] = genetic background: das1 deletion
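Wherever protein stability index of tFT-peptide fusion in deletion strain of DAS1 is given: PSI is a weighted mean of each variant's read distribution over the sorted stability bins, computed only for variants having over 10 reads in total.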
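Wherever protein stability index of tFT-peptide fusion in wild type is given: PSI derived as read-weighted mean over the 8 sorting bins, only variants exceeding 10 total reads kept, mCherry placed adjacent to the peptide and sfGFP distal.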

| Sequence | protein stability index (Saccharomyces cerevisiae [1]) | protein stability index (Saccharomyces cerevisiae [2]) | protein stability index (Saccharomyces cerevisiae [3]; [4]) | protein stability index (Saccharomyces cerevisiae [3]; genetic background: wild type) |
| --- | --- | --- | --- | --- |
| LVGYLSCVACIN | 0.342 | 0.0848 | – | – |
| CTSCGYKRRTNN | 0.683 | 0.477 | – | – |
| PDKWNHLIKLLN | 0.576 | 0.0782 | – | – |
| KKHKKGQKPKIN | 0.626 | 0.574 | – | – |
| LKILRHKMNHQN | 0.693 | 0.194 | – | – |
| ARWRVGLWRGASW | 0.71 | 0.67 | – | – |
| PDKRNHLIPLLN | 0.585 | 0.405 | – | – |
| LKILRQKMQHQN | 0.716 | 0.238 | – | – |
| LVVPLSCVACIN | 0.359 | 0.254 | – | – |
| LRILRQKMNHQN | 0.666 | 0.148 | – | – |
| VRGAVGYWRLVG | 0.668 | 0.152 | – | – |
| SIKLTFGFGAVL [AHA1 C-terminal 12 aa] | – | – | 0.6981 ± 0.0022 | 0.711 ± 0.0087 |
| EKKYSNNTNAIQ [CTI6 C-terminal 12 aa] | – | – | 0.68042 ± 0.00045 | 0.657 ± 0.024 |
| IKPSAEVHINAL [VMA10 C-terminal 12 aa] | – | – | 0.686 ± 0.011 | 0.743 ± 0.092 |
| QNNSQGFLREII [TDA7 C-terminal 12 aa] | – | – | 0.6961 ± 0.004 | 0.6925 ± 0.0034 |
| FTGGDILPPEFN [SPS18 C-terminal 12 aa] | – | – | 0.7639 ± 0.0048 | 0.739 ± 0.015 |
| LSLIYSPHLYMS [YJL136W-A C-terminal 12 aa] | – | – | 0.643 ± 0.013 | 0.101 ± 0.0022 |
| VHPNWSPFEVFK [GCY1 C-terminal 12 aa] | – | – | 0.744 ± 0.033 | 0.738 ± 0.037 |
| VGENNYYAESII [COS111 C-terminal 12 aa] | – | – | 0.714 ± 0.024 | 0.7022 ± 0.005 |
| CKYPTKDIPIFF [RAD17 C-terminal 12 aa] | – | – | 0.727 ± 0.013 | 0.734 ± 0.013 |
| TDEFDMLIGIDH [COG6 C-terminal 12 aa] | – | – | 0.697 ± 0.024 | 0.707 ± 0.025 |

| Sequence | protein stability index (Saccharomyces cerevisiae [1]) | protein stability index (Saccharomyces cerevisiae [2]) | protein stability index (Saccharomyces cerevisiae [3]; [4]) | protein stability index (Saccharomyces cerevisiae [3]; genetic background: wild type) |
| --- | --- | --- | --- | --- |
| IIAIVFKILSPN [FAR10 C-terminal 12 aa] | – | – | 0.32 ± 0.023 | 0.347 ± 0.031 |
| EKPEGKDTKTEE [CMK1 C-terminal 12 aa] | – | – | 0.685 ± 0.022 | 0.684 ± 0.051 |
| PVIKKSKKCAIL [CDC42 C-terminal 12 aa] | – | – | 0.757 ± 0.0059 | 0.6072 ± 0.0055 |
| LERILHEMHPPA [EOS1 C-terminal 12 aa] | – | – | 0.714 ± 0.012 | 0.726 ± 0.025 |
| VAHRENLAFPPR [PRO1 C-terminal 12 aa] | – | – | 0.732 ± 0.02 | 0.707 ± 0.012 |
| ADKELSFEINVK [BRR2 C-terminal 12 aa] | – | – | 0.6946 ± 0.003 | 0.741 ± 0.066 |
| VYTSKTQYKFDI [YNR071C C-terminal 12 aa] | – | – | 0.6849 ± 0.0021 | 0.694 ± 0.062 |
| IYHKDGNKVLKE [YDR391C C-terminal 12 aa] | – | – | 0.706 ± 0.053 | 0.6606 ± 0.0043 |
| RHICVGAKLCKF [MCH4 C-terminal 12 aa] | – | – | 0.8165 ± 0.0035 | 0.818 ± 0.11 |
| TSNGGVEETMKM [ARX1 C-terminal 12 aa] | – | – | 0.6815 ± 0.00071 | 0.676 ± 0.025 |
| SKPALGTCLYEQ [GAL3 C-terminal 12 aa] | – | – | 0.676 ± 0.0096 | 0.665 ± 0.03 |
| NNVPPIHPSLLH [NGR1 C-terminal 12 aa] | – | – | 0.7115 ± 0.0066 | 0.695 ± 0.017 |
| KQPRFQLLFEFS [TTI2 C-terminal 12 aa] | – | – | 0.687 ± 0.011 | 0.6511 ± 0.0017 |
| NDINNSRPITRK [ARO80 C-terminal 12 aa] | – | – | 0.682 ± 0.045 | 0.666 ± 0.03 |
| RKVPYKIIPYVY [ERG24 C-terminal 12 aa] | – | – | 0.514 ± 0.019 | 0.5005 ± 0.0021 |
| RIRQEIIKTKLL [EMP47 C-terminal 12 aa] | – | – | 0.67995 ± 0.00042 | 0.234 ± 0.032 |
| ELPAQKSTVISE [GEP7 C-terminal 12 aa] | – | – | 0.733 ± 0.039 | 0.702 ± 0.039 |
| QFSFKAVTFLLI [YOR314W-A C-terminal 12 aa] | – | – | 0.629 ± 0.048 | 0.563 ± 0.052 |
| RDVTDWWESREI [CCZ1 C-terminal 12 aa] | – | – | 0.7553 ± 0.0041 | 0.7652 ± 0.0026 |
| VLIVLLVLAFIA [TLG1 C-terminal 12 aa] | – | – | 0.284 ± 0.013 | 0.286 ± 0.0034 |
| KAAINQQSTPLN [RPH1 C-terminal 12 aa] | – | – | 0.676 ± 0.016 | 0.728 ± 0.053 |

| Sequence | protein stability index (Saccharomyces cerevisiae [1]) | protein stability index (Saccharomyces cerevisiae [2]) | protein stability index (Saccharomyces cerevisiae [3]; [4]) | protein stability index (Saccharomyces cerevisiae [3]; genetic background: wild type) |
| --- | --- | --- | --- | --- |
| PIAAIKEILDQV [DSF1 C-terminal 12 aa] | – | – | 0.666 ± 0.0092 | 0.639 ± 0.03 |
| VMLLFIFLIMKL [PEP12 C-terminal 12 aa] | – | – | 0.186 ± 0.023 | 0.198 ± 0.01 |
| ESHQDKTEEDIH [OKP1 C-terminal 12 aa] | – | – | 0.69113 ± 0.00011 | 0.726 ± 0.035 |
| HLSMVCDLELQL [NGL2 C-terminal 12 aa] | – | – | 0.738 ± 0.072 | 0.659 ± 0.045 |
| LATMILARMSCS [IRA1 C-terminal 12 aa] | – | – | 0.682 ± 0.023 | 0.657 ± 0.035 |
| PLYSMVAGENSL [SPO23 C-terminal 12 aa] | – | – | 0.678 ± 0.021 | 0.688 ± 0.023 |
| IDIPVQVKNSFI [YNR068C C-terminal 12 aa] | – | – | 0.711 ± 0.017 | 0.706 ± 0.051 |
| WRKFGINSYSYS [DIA2 C-terminal 12 aa] | – | – | 0.734 ± 0.016 | 0.759 ± 0.075 |
| FGKYLPLNYPSE [ASG1 C-terminal 12 aa] | – | – | 0.7167 ± 0.0015 | 0.671 ± 0.015 |
| ILWLKLEKRIEN [YLR339C C-terminal 12 aa] | – | – | 0.711 ± 0.025 | 0.703 ± 0.01 |
| PFKERAVFLLVL [YDR524W-C C-terminal 12 aa] | – | – | 0.523 ± 0.016 | 0.361 ± 0.0078 |
| PPAGIPPPPPLP [PAN1 C-terminal 12 aa] | – | – | 0.719 ± 0.0093 | 0.711 ± 0.025 |
| KQYIEPESVKPN [ABD1 C-terminal 12 aa] | – | – | 0.6996 ± 0.0034 | 0.722 ± 0.051 |
| ELQDALNTELLF [VAC17 C-terminal 12 aa] | – | – | 0.7157 ± 0.0042 | 0.699 ± 0.0099 |
| RSASNRHVDYFL [PPG1 C-terminal 12 aa] | – | – | 0.6933 ± 0.0059 | 0.698 ± 0.033 |
| LLMVGVPLLFSS [YPR159C-A C-terminal 12 aa] | – | – | 0.6249 ± 0.00071 | 0.6282 ± 0.0051 |
| SAGSLEYTARYM [YML012C-A C-terminal 12 aa] | – | – | 0.693 ± 0.036 | 0.671 ± 0.0079 |
| ATTDQEGDIHLE [PRE10 C-terminal 12 aa] | – | – | 0.689 ± 0.026 | 0.678 ± 0.038 |
| TPDVLAAGPQFE [PCK1 C-terminal 12 aa] | – | – | 0.7065 ± 0.0036 | 0.6787 ± 0.0029 |
| PREILLRLMNDK [PRP6 C-terminal 12 aa] | – | – | 0.726 ± 0.024 | 0.704 ± 0.096 |
| ANKNDAISKKVE [ATG23 C-terminal 12 aa] | – | – | 0.69 ± 0.017 | 0.763 ± 0.077 |

| Sequence | protein stability index (Saccharomyces cerevisiae [1]) | protein stability index (Saccharomyces cerevisiae [2]) | protein stability index (Saccharomyces cerevisiae [3]; [4]) | protein stability index (Saccharomyces cerevisiae [3]; genetic background: wild type) |
| --- | --- | --- | --- | --- |
| LRRIAKKHHKKK [SPB1 C-terminal 12 aa] | – | – | 0.699 ± 0.044 | 0.722 ± 0.034 |
| PRDEQDSRKRNR [IBD2 C-terminal 12 aa] | – | – | 0.699 ± 0.0085 | 0.7315 ± 0.0047 |
| YCFYINCIMNRR [RRT15 C-terminal 12 aa] | – | – | 0.658 ± 0.031 | 0.551 ± 0.00072 |
| LRSKGKRYDTRS [YJR018W C-terminal 12 aa] | – | – | 0.7035 ± 0.0016 | 0.708 ± 0.024 |
| STGSETKIADCR [HSM3 C-terminal 12 aa] | – | – | 0.683 ± 0.01 | 0.695 ± 0.021 |
| NKRDKRPANFTR [TSC11 C-terminal 12 aa] | – | – | 0.7063 ± 0.0042 | 0.692 ± 0.018 |
| KQGKKKKDCVIM [SKT5 C-terminal 12 aa] | – | – | 0.7193 ± 0.0022 | 0.696 ± 0.047 |
| YKTEYPEWALRR [PUS9 C-terminal 12 aa] | – | – | 0.723 ± 0.01 | 0.717 ± 0.053 |
| IKPSWENEKNIS [ARG2 C-terminal 12 aa] | – | – | 0.69 ± 0.02 | 0.684 ± 0.028 |
| ERVKIGVQFYEE [RTG2 C-terminal 12 aa] | – | – | 0.708 ± 0.013 | 0.736 ± 0.042 |
| TSLEKQINSIKK [NSP1 C-terminal 12 aa] | – | – | 0.753 ± 0.036 | 0.70199 ± 0.0005 |
| LDAENNNKCSIM [RHB1 C-terminal 12 aa] | – | – | 0.7192 ± 0.003 | 0.758 ± 0.027 |
| DLEVKLKKHKKN [TRZ1 C-terminal 12 aa] | – | – | 0.733 ± 0.029 | 0.676 ± 0.05 |
| TKNTCIRRLSNQ [YLR031W C-terminal 12 aa] | – | – | 0.709 ± 0.018 | 0.698 ± 0.036 |
| SLEKLEMSKYGL [YKL033W-A C-terminal 12 aa] | – | – | 0.6995 ± 0.0021 | 0.6694 ± 0.004 |
| IGGLLKPSELDD [CRM1 C-terminal 12 aa] | – | – | 0.726 ± 0.032 | 0.696 ± 0.033 |
| IMLTLLMFTGAV [PLB3 C-terminal 12 aa] | – | – | 0.402 ± 0.0044 | 0.396 ± 0.0091 |
| YASRGTGELWSP [NMD4 C-terminal 12 aa] | – | – | 0.7031 ± 0.004 | 0.714 ± 0.0047 |
